Results taken from article PMC8748809.

Target: native human thyroglobulin (human) (UniProt P01266)
Experiment: cryo-EM structure; hTG at 2 mg/mL in 25 mM Tris-HCl pH 7.5, 150 mM NaCl, sodium azide; plunge frozen; C2 symmetry imposed; composite map at 3.2 Å

A stoichiometry N of 2 was found for “native human thyroglobulin, P01266 20-2768” in this work.
